Assay results reported in article PMC3332082.

Tests used:
[1] = target: murine cdb3-GFP, deletion of residues 19-23 (mouse) (UniProt P04919); assay: FRET or BRET
[2] = target: murine cdb3-GFP, substitution of residues 19-23 (acidic residues to amides) (mouse) (UniProt P04919); assay: FRET or BRET
[3] = target: murine cdb3-GFP, substitution of residues 12-23 (all 7 acidic residues to amides) (mouse) (UniProt P04919); assay: FRET or BRET
[4] = target: murine cdb3-GFP, substitution of residues 25-31 (negative residues introduced) (mouse) (UniProt P04919); assay: other fluorescence titration

Question: For “murine hemoglobin (from erythrocytes of C57BL/6J mice) (from UniProt P01942 1-142; P02088 1-147) (complex)”, which reduction in deoxyHb binding against wild type [1] is on record?
Answer: Its reduction in deoxyHb binding against wild type is 60%.

Question: And the reduction in deoxyHb binding against wild type [2]?
Answer: The reduction in deoxyHb binding against wild type was 60%.

Question: And the affinity for deoxyHb, percent of normal [3]?
Answer: Its affinity for deoxyHb, percent of normal is 15%.

Question: What about the Kd [4] of the same substance?
Answer: The Kd was 390 nM.
